In US20250127915A1 (SHANGHAI JUNSHI BIOSCIENCES, published 2025):
Where a chain is given by its changes, count along the chain named. Where two headings read alike, the source gives them in different places. Values belong to the binder of their own block, whether it stands above or below them.

Legend:
[1] = target: T1, human CLDN-18.2 (human, UniProt P56856 1-261); test: cell-based or functional assay
[2] = target: T1, human CLDN-18.2; test: cell-based or functional assay; remark: listed apart in the source
[3] = target: T1, human CLDN-18.2; test: flow cytometry on NUGC4-CLDN-18.2 cells overexpressing human CLDN-18.2, 4 °C 30 min, fluorescent secondary antibody, MFI-PE
Method: Finally, the fluorescence intensity was detected by BD CantoII flow cytometer. […] The antibody dose-dependent binding curve was fitted by GraphPad (FIGS. 1a-1d) and EC50 was calculated. The positive controls were the corresponding monoclonal antibodies, and the negative control was anti-KLH IgG1.

[4] = target: T1, human CLDN-18.2; test: cell-based or functional assay; remark: listed apart in the source

- IC50 of inhibition of NUGC4-CLDN-18.2 cells proliferation (Cell titer Glo, 48 h) [1]: 0.011 µg/mL
- EC50 of endocytosis (MFI-APC of CypHer5E-labelled conjugate in NUGC4-CLDN-18.2 cells, 37 °C 4 h, FACS) [2]: 2.67 µg/mL
- EC50 [3]: 0.495 µg/mL
B1: ADC-4-MMAE (antibody, human IgG1, kappa, V domains shown)
VH: EVQLVESGGGLVQPGGSLRLSCAASGFTLNNFGMHWVRQAPGKGLEWVSSISSGSGTIYYADSVKGRFTISRDNPKNSLYLQMNSLRAEDTAVYYCARAYYGNGFSFWGQGTLVTVSS
VL: DIVMTQSPDSLAVSLGERATINCKSSQSLLNSGNQKNYLTWYQQKPGQPPKLLIYWASTRESGVPDRFSGSGSGTDFTLTISSLQAEDVAVYYCQNVYSYPLTFGQGTKLEIKR
modifications: MC-VC-PAB-MMAE (vc-MMAE) coupled after TCEP reduction of the antibody; positions not given; DAR 4.55
notes: also called JS107-4-MMAE

- IC50 of inhibition of NUGC4-CLDN-18.2 cells proliferation (Cell titer Glo, 48 h) [1]: 0.0127 µg/mL
- EC50 of endocytosis (MFI-APC of CypHer5E-labelled conjugate in NUGC4-CLDN-18.2 cells, 37 °C 4 h, FACS) [2]: 0.937 µg/mL
- EC50 [3]: 2.96 µg/mL
B2: ADC-3-MMAE (antibody, V domains shown)
VH: QIQLVQSGSELKKPGESVKVSCKASGYTFTNYGMNWVRQAPGQGLEWMGWINTYTGESTYADGFTGRFVFSSDTSARTAYLQISSLKAEDTAVYFCATLGYGNSLAYWGQGTLVTVSS
VL: B1 VL with K36R, V97N, S99F, L102F
modifications: MC-VC-PAB-MMAE (vc-MMAE) coupled after TCEP reduction of the antibody; positions not given; DAR 3.97
notes: also called JS107-3-MMAE

- EC50 of endocytosis (MFI-APC of CypHer5E-labelled antibody in NUGC4-CLDN-18.2 cells, 37 °C 4 h, FACS) [4]: 58.8 µg/mL
- EC50 [3]: 0.347 µg/mL
B3: JS012-Chi2-hu2-v3-2a (antibody, human IgG1, kappa, V domains shown)
VH: B1 VH
VL: B1 VL
notes: also called JS107-5

- EC50 of endocytosis (MFI-APC of CypHer5E-labelled conjugate in NUGC4-CLDN-18.2 cells, 37 °C 4 h, FACS) [4]: 21.8 µg/mL
- EC50 [3]: 0.23 µg/mL
B4: ADC-5-MMAE (antibody, human IgG1, kappa, V domains shown)
VH: B1 VH
VL: B1 VL
modifications: MC-VC-PAB-MMAE (vc-MMAE) coupled after TCEP reduction of the antibody; positions not given; DAR 4.1
notes: also called JS107-5-MMAE

- IC50 of inhibition of NUGC4-CLDN-18.2 cells proliferation (Cell titer Glo, 48 h) [1]: 0.00936 µg/mL
- EC50 of endocytosis (MFI-APC of CypHer5E-labelled conjugate in NUGC4-CLDN-18.2 cells, 37 °C 4 h, FACS) [2]: 1.61 µg/mL
- EC50 [3]: 1.21 µg/mL
B5: ADC-4-MMAF (antibody, human IgG1, kappa, V domains shown)
VH: B1 VH
VL: B1 VL
modifications: MC-MMAF coupled after TCEP reduction of the antibody; positions not given; DAR 3.85
notes: also called JS107-4-MMAF

- EC50 [3]: 1.65 µg/mL
B6: JS012-Chi2-hu2-v3-2 (antibody, human IgG1, kappa, V domains shown)
VH: B1 VH
VL: B1 VL
notes: also called JS107-4

- EC50 [3]: 3.76 µg/mL
B7: JS012-Chi9-hu7 (antibody, human IgG1, kappa, V domains shown)
VH: B2 VH
VL: B1 VL with K36R, V97N, S99F, L102F
notes: also called JS107-3; JS012-chi9-hu07
